Laboratory results: PMC6699766
Read-outs that look alike come from different tables or passages of the source.

Legend:
[1] = molecular target: photosystem I complex of Prochlorococcus marinus ecotype MED4 (Prochlorococcus marinus MED4 (endogenous in thylakoid membranes)); assay: atomic force microscopy
[2] = molecular target: photosystem I complex of Prochlorococcus marinus ecotype MED4 (Prochlorococcus marinus MED4 (endogenous in thylakoid membranes)); assay: atomic force microscopy; remark: listed apart in the source
[3] = molecular target: photosystem I complex of Prochlorococcus marinus ecotype MIT9313 (Prochlorococcus marinus MIT9313 (endogenous in thylakoid membranes)); assay: atomic force microscopy
[4] = molecular target: photosystem I complex of Prochlorococcus marinus ecotype SS120 (Prochlorococcus marinus SS120 (endogenous in thylakoid membranes)); assay: atomic force microscopy
[5] = molecular target: photosystem I complex of Synechocystis sp. PCC 6803; assay: negative stain TEM

photosystem I complex of Prochlorococcus marinus ecotype MED4
stoichiometry N [1]: 3 | ratio of PSI monomer equivalents in trimeric vs monomeric or dimeric PSI [2]: 5.3 | stoichiometry N [2]: 2

photosystem I complex of Prochlorococcus marinus ecotype MIT9313
ratio of trimeric to non-trimeric PSI [3]: 44.5 | stoichiometry N [3]: 3

photosystem I complex of Prochlorococcus marinus ecotype SS120
stoichiometry N [4]: 3

photosystem I complex of Synechocystis sp. PCC 6803
stoichiometry N [5]: 3
